Results as given in patent US9074002B2, “PTP1B inhibitors” (Cold Spring Harbor Laboratory, priority 2009, dated 2015).
“Also recorded” adds a separate entry of the source.

T1: endogenous PTP1B-OX (Homo sapiens, UniProt P18031)
T1 construct: endogenous in cells; host or cells: 293T cells (transfected only with the scFv intrabody)
T1 sequence (P18031 1-435): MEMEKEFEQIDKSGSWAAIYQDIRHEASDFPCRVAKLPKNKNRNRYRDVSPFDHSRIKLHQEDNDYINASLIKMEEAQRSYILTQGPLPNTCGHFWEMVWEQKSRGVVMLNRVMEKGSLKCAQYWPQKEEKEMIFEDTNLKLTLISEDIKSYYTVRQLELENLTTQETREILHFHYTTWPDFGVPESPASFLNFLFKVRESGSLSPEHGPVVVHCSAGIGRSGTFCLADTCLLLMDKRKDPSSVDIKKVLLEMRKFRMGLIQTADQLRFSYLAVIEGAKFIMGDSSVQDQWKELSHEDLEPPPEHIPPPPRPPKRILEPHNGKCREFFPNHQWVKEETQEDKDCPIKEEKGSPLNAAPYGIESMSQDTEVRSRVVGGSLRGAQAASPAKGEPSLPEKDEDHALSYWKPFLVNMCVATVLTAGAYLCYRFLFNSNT

B1: scFv57: scFv binding PTP1B-OX, SEQ ID NO: 27 and 90 (protein)
scFv: MKKTAIAIAVALAGFATVAQAALTQPSSVSANPGAFNKITCSGSSSAYGYGWNQQKSPGSAPVTVIYNNNKRPSNIPSRFSGSKSGSTGTLTITGDQDEDEDFYFCGSEYSSTDAIFGAGTTLTVLGQSSRSSTVTLDESGGGLQAPGGALSLVCKASGFTFSSYDMGWIPQAPGKGLEYVAGITDNGIYASYGSAVDGRATISRDNRQSSVKLQLNNLKADDTGTYYCARDDGSGWTGNSIDAWGHGTEVIVSSTSGQAGQHHHHHHGAYPYDVPDYAS
B2: scFv45: conformation-sensor scFv binding PTP1B-OX, SEQ ID NO: 26 and 78; expressed as intrabody (protein)
scFv: MKKTAIAIAVALAGFATVAQAALTQPSSVSANPGGTVKITCSGSSSAYGYGWYQQKSPGSAPVTVIYNNNKRPSNIPSRFSGSKSGSTGTLTITGVQAEDEAVYFCGSEDSSTDAIFGAGTTLTVLGQSSRSSTVTLDESGGGLQAPGGALSLVCKASGFTFSSYDMGWIRQAPGKGLEYVAGITDNGRYASYGSAVDGRATISRDNGQSSVRLQLNNLRAEDTGTYYCARDDGSGWTGNSIDAWGHGTEVIVSSTSGQAGQHHHHHHGAYPYDVPDYAS

Target: T1, endogenous PTP1B-OX
Experiment: Intrabody interaction in 293T cells treated with H2O2 (Ni-NTA pull down / anti-PTP1B immunoprecipitation)
Type: cell-based
Conditions: 1 mM H2O2 5 minutes, FIGS. 11, 12
Procedure, shortened: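 293T cells transiently expressing HA-detected scFv intrabodies, serum-starved 16 h, then 1 mM H2O2 for 5 min or 20 mM NAC for 1 h at 37 °C (NAC lysates with 2 mM TCEP). Complexes from 1 mg lysate captured by Ni-NTA pull-down or anti-PTP1B (FG6) IP; PTP1B and intrabody detected by immunoblot.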

| Molecule | binding of intrabody to endogenous PTP1B-OX |
| --- | --- |
| B1 | bound to endogenous PTP1B-OX strongly |
| B2 | interaction between scFv45 and PTP1B-OX was observed; also recorded: co-pulldown of PTP1B-OX in the presence of H2O2 |
